{"source": "paper PMC11588112", "about": "(Proceedings of the National Academy of Sciences of the …, 2024)"}
{"target": "mumps hemagglutinin neuraminidase (HN) globular head domain, monomeric (Mumps virus genotype G (strain not …))"}
{"binder": "C7 (antibody, V domains shown) VH: QITQKSEGSGILQPSQTLSLTCSFSGFSLNISGMGVGWIRQPSGKGLEWLAHIWWDDVKRYNPALKSRLTISKDTSSRQVFLKIASVDTADTATYYCVRIDNSYAMDYWGQGTSVTVSS VL: DIVLTQSPASLAVSLGQRATISCRASKSVSTSGYSYVHWFQQKPGQPPKLLIYLASNLESGVPARFSGSGSGTDFTLNIHPVEEEDAATYYCQHSRELPWTFGGGTKLEIK", "binding result": "binds"}
{"binder": "D11 (antibody, V domains shown) VH: EVQLQQSGAELVRPGTSVKLSCKTSGYTFISYWIHWVKQRPGQGLEWIGVIDPSDSYTNYNQNFKGKVTLTVDTSSSTAYMQLSSLTSEDSAVYYCARFDYDDYWGQGTTLTVSS VL: QIVLTQSPAIMSASPGEKVTMTCSASSSVTYMQWYKQKSGTSPKRWIYDTSKLASGVPARFSGSGSGTSYSLTISSMEAEDAATYYCQQWNTNPWTFGGGTKLEIK", "binding result": "binds"}
{"binder": "E7 (antibody, V domains shown) VH: EVKLVESGGGLVQPGGSLRLSCATSGFTFTDYYMSWVRQTPGKALEWLGFIRNKPNGYTTEYNASVKGRFTISRDNSRSVLYLQMNVLRAEDSATYFCARVPHDYGFFDYWGQGTTLTVSS VL: DVLMTQSPLSLPVSLGDQASISCRSSQSIEHINGHTYLEWYLQKPGQSPKVLIYKVSNRFSGVPDRFSGSGSGTDFTLRISRVEAEDLGVYYCFQASHLPYTFGGGTKLEIK", "binding result": "binds"}
{"binder": "B11 (antibody, V domains shown) VH: EVQLQQSGAEPVRPGTSVKFSCKASGYTLTDYWMHWVKQRPGQGLDWIGVIDPSDSYTTYNQKFKGKATLTVDKSSSTAYMQLSSLTSEDSAVYYCARGPTLYYFDYWGQGTTLTVSS VL: DIVMTQPQKFMSTSVGDRVSVTCKASQNVGTNVVWCQQKPGQSPKALIYSASYLYSGVPDRFTGTGSGTDFTLTISNVQSEDLAEYFCQQYNNYPLTFGAGTKLELK", "binding result": "binds"}
{"binder": "F11 (antibody, V domains shown) VH: EVQLQQSGPELVKPGASVKISCKASGYTFTDYYMNWVKQSHGKSLEWVGDINPNNGVTRYNQNFKGKGTMTVDKSSRTAYMEFRSLTSEDSAVYYCGRLGYYGKYKDGMDYWGQGTSVTVSS VL: DIQMTQSPASLSVSVGETVTITCRASDNIYSNLAWYQQRQGKSPQLLVYAATNLLDGVPSRFSGSGSGTHYSLKINSLQSEDFGTYYCQHFWGTPFTFGSGTKLEIK", "binding result": "binds"}
{"binder": "C9 (antibody, V domains shown) VH: EVKLLQSGGGLVQPGGSLKLSCAASGIDFSRYWMGWVRRAPGKGLEWIGEINPDSSTINYAPSLKDKFIISRDNAKNTLYLQMIKVRSEDTALYYCARYWADWFFDVWGTGTTVTVSS VL: DIQMTQSSSYLSVSLGGRVTITCTASDHIDNWLAWYQQKPGNAPRLLLSGATSLDTGVPSRFSGSGSGKDFTLSITSLQTEDVATYYCQQYWSTPYTFGGGTKLEIK", "binding result": "binds"}
{"binder": "B12 (antibody, V domains shown) VH: EVQLQQSGPELVKPGASVKIPCKASGYTFTEYNMDWVKQSHGKSLEWIGDINPNNGDTIYNQKFKGKATLTVDKASSTAYMELRSLTSEDTAVYYCARGTLYGSNYYFVMDYWGQGTSVTVSS VL: DIQITQSPASLSASVGETVTITCGASENIYGALNWFQRKQGKSPQLLIYGATTLADGMSSRFSGNGSGRQYSLKISGLHPDDVATYYCQNVLSIPWTFGGGTKLEIK", "binding result": "binds"}
{"binder": "E10 (antibody, V domains shown) VH: EVQLQQSGAELVRPGSSVKLSCKASGYTFTWYWIDWMKQRPGQGLEWIGNIYPSDSEVQYNQKFKDRATLTLDKSSTTAYMQLSSLTSEDSAVYYCARRLYDYFALDFWGQGTSVTVSS VL: DIVMTQAAFSNPVTLGTSASISCRSSKSLQHSNGITYLYWYLQKPGQSPQLLIYQMSKFASGVPDRFSSSGSGTDFTLRISRVEAEDVGVYYCAQNLELPWTFGGGTKLEIK", "binding result": "binds"}
{"binder": "F10 (antibody, V domains shown) VH: EVQLQQSGAELVRPGSSVKLSCKASGYTFTWYWIDWLKQRPGQGLEWIGNIYPSDSAVQYNQNFKDRATLTLDTSSTTAYLHLSSLTSEDSAVYYCARRIYDYFALDFWGQGTSVTVSS VL: DIVMTQAAFSHPVTLGTSASISCRSSKSLQHSNGITFLYWYLQKPGQSPQLLIYQMSKLASGIPDRFSSSGSGTDFTLRISRVEAEDVGVYYCAQNLELPWTFGGGTKLEIK", "binding result": "binds"}
{"binder": "G9 (antibody, V domains shown) VH: EVQLQQSGPEQVRTGASVKISCKASGYFFTGYYLHWVRQSHGKSLEWIGYIRSYNGATKYNQKFEGKTTFTVDTSSSTAYMQINSLTSEDSAVYYCAKDEDSGYAMDYWGQGTSVTVSS VL: DIVMTQSHKFMSTLVGDRVAITCKASQDVSSAVAWYQQKPGQSPKLLIYSASYRFTGVPDRFTGSGSGTDFTFTITTVQTEDLAIYFCQQHYSLPWTFGGGTKLEIK", "binding result": "binds"}
{"binder": "G6 (antibody, V domains shown) VH: QIQLVQSGPELKKPGETVKISCKASGYTFTPYGLSWVKQAPGKVLKWMGWINTSSGVPTYADDFKGRFAFSLETSVSTAYLQINNLKNEDTATYFCARISVSFYYGLYFDYWGQGTTLTVSS VL: DIQMTQSPSSMSVSLGDTVSITCHASQGIANNIGWLQQKPGKSFKGLLYHGSTLEDGVPSRFSGSGSGAAYSLTISSLESEDFADYYCIQYAQLPYTFGGGTKLEIK", "binding result": "binds"}
